Literature values as cited in PMC4203807.

Biological target: clathrin heavy chain N-terminal domain (Rattus norvegicus) (UniProt P11442)
UniProt P11442, sequence (P11442 1-363): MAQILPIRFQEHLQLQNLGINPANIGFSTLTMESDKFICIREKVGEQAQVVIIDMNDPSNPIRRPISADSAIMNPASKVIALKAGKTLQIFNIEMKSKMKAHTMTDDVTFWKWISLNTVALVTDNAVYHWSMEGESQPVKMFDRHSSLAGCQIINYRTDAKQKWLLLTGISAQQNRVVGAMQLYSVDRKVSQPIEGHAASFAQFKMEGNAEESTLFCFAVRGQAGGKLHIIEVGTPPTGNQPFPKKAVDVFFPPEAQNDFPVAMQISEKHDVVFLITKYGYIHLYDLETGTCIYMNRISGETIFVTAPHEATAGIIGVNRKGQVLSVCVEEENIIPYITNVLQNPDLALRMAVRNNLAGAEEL

Kd: 250 µM
Substance: AP180 623-680 (from UniProt Q05140)
